{"source": "patent US20180162931A1", "key": {"[1]": {"target": "human α-CGRP 1-37 (WT) (human)", "sequence (peptide, as listed by the source)": "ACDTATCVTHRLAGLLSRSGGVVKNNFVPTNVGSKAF", "test": "Biacore 25 C, Fab over N-biotinylated CGRP on SA chip"}, "[2]": {"target": "human α-CGRP 1-37 (WT) (human)", "test": "Biacore 37 C, Fab over N-biotinylated CGRP on SA chip"}, "[3]": {"target": "human α-CGRP fragment 25-37 (human)", "test": "Biacore 25 C, Fab over N-biotinylated fragment on SA chip"}, "rat α-CGRP (1-37) (rat)": {"target": "rat α-CGRP (1-37) (rat)", "sequence (peptide, as listed by the source)": "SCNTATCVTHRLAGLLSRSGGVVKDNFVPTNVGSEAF", "test": "Biacore 37 C, Fab over N-biotinylated rat α-CGRP on SA chip"}}, "data": [{"substance": "anti-CGRP monoclonal antibody 4901 (Sigma, Product No. C7113), Fab fragment", "values": [{"measurement": "Kd", "setting": "[1]", "result": 61, "unit": "nM"}, {"measurement": "Kd", "setting": "[2]", "result": 139, "unit": "nM"}, {"measurement": "fold lower affinity than binding to full length human α-CGRP", "setting": "[3]", "result": 6, "unit": "fold"}, {"measurement": "Kd", "setting": "rat α-CGRP (1-37) (rat)", "result": 3.4, "unit": "nM"}]}]}
